This note sets out measurements from US20180015176A1 (Bayer, published 2018).

First the molecules themselves.
B1: TPP-883 single-substitution variant A51Q of CDR-L2 (soluble Fab) (Fab, V domains shown)
VH: EVQLLESGGGLVQPGGSLRLSCAASGFTFSPYPMMWVRQAPGKGLEWVSYISPSGGKTHYADSVKGRFTISRDNSKNTLYLQMNSLRAEDTAVYYCARGGDGYFDYFDYWGQGTLVTVSS
VL: DIQMTQSPATLSASVGDRVTITCRASQSISSYLNWYQQKPGKAPKLLIYQASSLQSGVPSRFSGSGSGTDFTLTISSLQPEDFATYYCQQSYSSPGITFGPGTKVEIK
notes: Soluble Fab
B2: TPP-883 single-substitution variant M35I of CDR-H1 (soluble Fab) (Fab, V domains shown)
VH: B1 VH with M35I
VL: B1 VL with Q50A
notes: Soluble Fab; also called M351
B3: TPP-883 single-substitution variant G97F of CDR-L3 (soluble Fab) (Fab, V domains shown)
VH: B1 VH
VL: B1 VL with Q50A, G96F
notes: Soluble Fab
B4: TPP-883 single-substitution variant G102T of CDR-H3 (soluble Fab) (Fab, V domains shown)
VH: B1 VH with G102T
VL: B1 VL with Q50A
notes: Soluble Fab; also called best single-substitution variant G102T

Changes are numbered by the printed parent chain. In names and notes the source's numbering stands.

In this experiment the target is T1, TPP-599 (HUMAN-TNFRSF12Aaa28-80-hIgG1-Fc) (human, biotinylated with Biotin-LC-NHS (about 2-fold molar excess)).
T1 construct: Dimeric Fc-fused extracellular domain of human TWEAKR, used biotinylated in the panning and the Fab ELISA; also called TWEAKR Fc; TWEAKR-Fc
The experiment in a line: ELISA, soluble Fab on 2.5 nM biotinylated TWEAKR-Fc, anti-c-myc detection. As to the method:
Affinity maturation was carried out by phage panning. Washed magnetic beads (DynaBeads) were incubated at 4° C. with 10 nM, 1 nM, 100 pM and 10 pM of biotinylated human antigen overnight and blocked with blocking buffer (PBS with 3% BSA, 0.05% Tween-20) at 4° C. for 1 h. The blocked Fab phage library was added to the blocked TWEAKR DynaBeads at 10 000-fold, 1000-fold and 100-fold excess, compared to the theoretical library complexity, and incubated at room temperature for 30 min. Thus, 12 strategies in total were followed (4 antigen concentrations×3 Fab phage titers). […] For the expression of soluble Fab, the phagemide vector was digested with MluI to remove the gene III-membrane anchor sequence required for Fab display on the phage, and ligated again. 96 variants of each of the 12 selection pools were expressed as soluble Fabs and examined in an ELISA format. […] For efficacy maturation, HEK293 cells were transfected with an NF-kappaB reporter (BioCat, Cat. No. LR-0051-PA). Transfected cells were sown in F17 media (serum-free; Invitrogen) in white polylysine-coated 384-well plates (BD), and individual variants of the NNK-diversified position antibody (human IgG1) libraries were expressed transiently in mammalian cells. The next day, NF-kappaB reporter cells were stimulated with the expressed single-NNK antibody variants for 6 h, and a luciferase assay was then carried out by standard methods.
Background: In an ELISA, binding on a coated surface is turned into a signal by an enzyme label.
Turning to B1, the binding result is reported as “binds”.

On to B2, for which the binding result is reported as “binds”.

As for B3, the binding result is “binds”.

As for B4, the binding result is “binds”.
